{
  "source": "paper PMC8267569",
  "about": "“Development of selective protease inhibitors via engineering of the bait region of human α2-macroglobulin” (The Journal of Biological Chemistry, 2021)",
  "proteins": {"B1": {"name": "tabula rasa A2M (bait region replaced by 13 Gly-Gly-Ser repeats) (natural protein, human)", "chain": "SVSGKPQYMVLVPSLLHTETTEKGCVLLSYLNETVTVSASLESVRGNRSLFTDLEAENDVLHCVAFAVPKSSSNEEVMFLTVQVKGPTQEFKKRTTVMVKNEDSLVFVQTDKSIYKPGQTVKFRVVSMDENFHPLNELIPLVYIQDPKGNRIAQWQSFQLEGGLKQFSFPLSSEPFQGSYKVVVQKKSGGRTEHPFTVEEFVLPKFEVQVTVPKIITILEEEMNVSVCGLYTYGKPVPGHVTVSICRKYSDASDCHGEDSQAFCEKFSGQLNSHGCFYQQVKTKVFQLKRKEYEMKLHTEAQIQEEGTVVELTGRQSSEITRTITKLSFVKVDSHFRQGIPFFGQVRLVDGKGVPIPNKVIFIRGNEANYYSNATTDEHGLVQFSINTTNVMGTSLTVRVNYKDRSPCYGYQWVSEEHEEAHHTAYLVFSPSKSFVHLEPMSHELPCGHTQTVQAHYILNGGTLLGLKKLSFYYLIMAKGGIVRTGTHGLLVKQEDMKGHFSISIPVKSDIAPVARLLIYAVLPTGDVIGDSAKYDVENCLANKVDLSFSPSQSLPASHAHLRVTAAPQSVCALRAVDQSVLLMKPDAELSASSVYNLLPEKDLTGFPGPLNDQDNEDCINRHNVYINGITYTPVSSTNEKDMYSFLEDMGLKAFTNSKIRKPKMCGGSGGSGGSGGSGGSGGSGGSGGSGGSGGSGGSGGSGGSETVRKYFPETWIWDLVVVNSAGVAEVGVTVPDTITEWKAGAFCLSEDAGLGISSTASLRAFQPFFVELTMPYSVIRGEAFTLKATVLNYLPKCIRVSVQLEASPAFLAVPVEKEQAPHCICANGRQTVSWAVTPKSLGNVNFTVSAEALESQELCGTEVPSVPEHGRKDTVIKPLLVEPEGLEKETTFNSLLCPSGGEVSEELSLKLPPNVVEESARASVSVLGDILGSAMQNTQNLLQMPYGCGEQNMVLFAPNIYVLDYLNETQQLTPEIKSKAIGYLNTGYQRQLNYKHYDGSYSTFGERYGRNQGNTWLTAFVLKTFAQARAYIFIDEAHITQALIWLSQRQKDNGCFRSSGSLLNNAIKGGVEDEVTLSAYITIALLEIPLTVTHPVVRNALFCLESAWKTAQEGDHGSHVYTKALLAYAFALAGNQDKRKEVLKSLNEEAVKKDNSVHWERPQKPKAPVGHFYEPQAPSAEVEMTSYVLLAYLTAQPAPTSEDLTSATNIVKWITKQQNAQGGFSSTQDTVVALHALSKYGAATFTRTGKAAQVTIQSSGTFSSKFQVDNNNRLLLQQVSLPELPGEYSMKVTGEGCVYLQTSLKYNILPEKEEFPFALGVQTLPQTCDEPKAHTSFQISLSVSYTGSRSASNMAIVDVKMVSGFIPLKPTVKMLERSNHVSRTEVSSNHVLIYLDKVSNQTLSLFFTVLQDVPVRDLKPAIVKVYDYYETDEFAIAEYNAPCSKDLGNA", "notes": "human alpha2-macroglobulin from its N-terminus to residue 689, the residue before the bait region (residues 690-728); tabula rasa bait region: 13 Gly-Gly-Ser repeats in place of the 39 residues 690-728, told in words; human alpha2-macroglobulin from residue 729, the residue after the bait region, to the C-terminus; Dimers removed during purification; also called A2M TR; A2M tabula rasa"}},
  "molecular_target": "the molecule itself",
  "assay": "native gel or EMSA; pore-limited native PAGE of purified recombinant A2M; dimers that failed to tetramerize were removed during purification (Fig. S2)",
  "data": [
    {"protein": "B1", "values": [
      {"measurement": "stoichiometry N", "result": 4}
    ]}
  ]
}
